Source: the supplement of paper PMC7125110
± gives the standard error. For some of these results: Fewer inactive variants are shown than the library holds.

B1: glmS ribozyme (parent)
chain: AUAAAAGCGCCAGAACUACAGAAAUGUAGUUGACGAGGAGGAGGUUUAUCGAAUUUUCGGCGGAUGCCUCCAAA

Assays:
Conditions in all cases: with glucosamine-6-phosphate
[1] = variants of: B1; assay: kcat; higher = faster cleavage; RNA array
Method in brief: (§1)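 Barcoded ribozyme variants, transcribed in situ by E. coli RNA polymerase on sequenced MiSeq chips, were followed via a hybridised Cy3 probe at 37 °C. Glucosamine-6-phosphate ranged from 40 μM to 10 mM in HEPES/KCl/Mg(OAc)2 buffer. kobs came from decay fits to per-tile medians, and kcat and KM from weighted Michaelis–Menten fits.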

[2] = variants of: B1; assay: KM; higher = weaker cofactor use; RNA array
Method in brief: as §1

[3] = variants of: B1; assay: self-cleavage kobs at 40 uM GlcN6P; higher = faster cleavage; RNA array
Method in brief: as §1

[4] = variants of: B1; assay: self-cleavage kobs at 10000 uM GlcN6P; higher = faster cleavage; RNA array
Method in brief: as §1

[5] = variants of: B1; assay: self-cleavage kobs at 160 uM GlcN6P; higher = faster cleavage; RNA array
Method in brief: as §1

[6] = variants of: B1; assay: self-cleavage kobs at 2500 uM GlcN6P; higher = faster cleavage; RNA array
Method in brief: as §1

[7] = variants of: B1; assay: self-cleavage kobs at 640 uM GlcN6P; higher = faster cleavage; RNA array
Method in brief: as §1

Variant | kcat [1] [s⁻¹] | KM [2] [µM] | self-cleavage kobs at 40 uM GlcN6P [3] [s⁻¹] | self-cleavage kobs at 10000 uM GlcN6P [4] [s⁻¹] | self-cleavage kobs at 160 uM GlcN6P [5] [s⁻¹] | self-cleavage kobs at 2500 uM GlcN6P [6] [s⁻¹] | self-cleavage kobs at 640 uM GlcN6P [7] [s⁻¹]
A14G A42G A53G | 0.0447 ± 0.015 | 781 ± 340 | 0.00216 ± 0.00072 | 0.0405 ± 0.019 |  |  | 
A14U C50G | 0.000106 ± 3e-05 |  | 4.12e-05 ± 1.3e-05 | 0.000112 ± 5e-05 | 0.000164 ± 3e-05 | 9.1e-05 ± 1.6e-05 | 
G13U U47G | 0.000262 ± 5.2e-05 | 2420 ± 890 |  | 0.00019 ± 2.5e-05 |  | 0.000158 ± 1.5e-05 | 4.72e-05 ± 7.2e-06
G13U U47C | 7.04e-05 ± 3.2e-06 | 1030 ± 150 |  | 6.59e-05 ± 1.6e-05 |  | 4.74e-05 ± 1.2e-05 | 2.85e-05 ± 1.2e-05
A14U C50U C67G | 3.51e-05 ± 1.5e-05 |  |  |  |  |  | 
A14U U69G | 3.85e-05 ± 7.5e-06 |  |  | 3.9e-05 ± 8.1e-06 | 4.67e-05 ± 1.3e-05 | 3.53e-05 ± 6.6e-06 | 
A14G G29C | 0.000331 ± 6.9e-05 | 1330 ± 540 |  | 0.00028 ± 2.9e-05 | 6.33e-05 ± 1.1e-05 | 0.000253 ± 2.6e-05 | 9.55e-05 ± 8.8e-06
A14G G29U | 0.00845 ± 0.0039 |  | 0.000647 ± 0.00012 | 0.0131 ± 0.0033 | 0.00105 ± 0.00022 | 0.00501 ± 0.0013 | 0.00497 ± 0.00096
A14G A64G | 0.0806 ± 0.028 | 2030 ± 810 | 0.00184 ± 0.00024 | 0.0677 ± 0.017 | 0.00428 ± 0.001 |  | 0.0212 ± 0.0065
A14U G51U | < 1e-05 |  | < 1e-05 | < 1e-05 |  |  | < 1e-05
A14C G29A A53U G59A C68U | < 1e-05 |  |  |  |  |  | 
A14G U30C | 0.00152 ± 0.00022 | 1880 ± 500 | 3.48e-05 ± 8e-06 | 0.00122 ± 0.00013 | 9.58e-05 ± 1.9e-05 | 0.000958 ± 0.00012 | 0.000552 ± 0.00011
G13U U69G | 2.13e-05 ± 6.6e-06 |  |  |  |  |  | 
G13U U69A | 4.51e-05 ± 1.2e-05 |  |  | 3.28e-05 ± 1.1e-05 |  | 6.1e-05 ± 1.3e-05 | 
A14C U31G | 0.0249 ± 0.0019 | 2550 ± 250 | 0.000384 ± 5.3e-05 | 0.0194 ± 0.0031 | 0.00145 ± 0.00024 | 0.0154 ± 0.0047 | 0.00494 ± 0.00094
A14C U31A | 0.0083 ± 0.0041 |  | 0.000559 ± 0.00011 |  | 0.00135 ± 0.00031 | 0.00676 ± 0.0026 | 0.00413 ± 0.0019
A14U U46C | 0.00036 ± 8.4e-05 | 956 ± 430 |  | 0.000305 ± 4e-05 | 6.29e-05 ± 9.9e-06 | 0.000395 ± 5.3e-05 | 0.000126 ± 1.4e-05
